Test results as given in the supplement of paper PMC10201428.
± gives the standard deviation of the averaged measurements.

Legend:
[1] = test system: VchCAST RNA-guided transposition machinery (E. coli BL21(DE3) host, lacZ target); assay: relative integration efficiency (T-LR orientation) vs wild-type transposon end (log2 (normalized fold change)); transposon end mutated: right end (5 bp flank + 75 bp right end); higher = more efficient transposition
Method in brief: (§1)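 A T7-driven effector plasmid encoding a CRISPR array, tniQ-cas8-cas7-cas6 and tnsA-tnsB-tnsC was co-transformed into E. coli BL21(DE3) together with a pUC57 mini-transposon donor holding barcoded pools of 1549 left-end or 1849 right-end variants. Transformants were plated with 0.1 mM IPTG at 37°C for 18 h. Illumina sequencing of PCR-amplified input plasmids and genomic integration junctions gave barcode abundances, and relative integration efficiency is their output/input fold change, normalised to reference barcodes and log-transformed.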

[2] = test system: VchCAST RNA-guided transposition machinery (E. coli BL21(DE3) host, lacZ target); assay: relative integration efficiency (T-RL orientation) vs wild-type transposon end (log2 (normalized fold change)); transposon end mutated: right end (5 bp flank + 75 bp right end); higher = more efficient transposition
Method in brief: as §1

Row | Sequence | relative integration efficiency (log2) [1] | relative integration efficiency (log2) [2]
1 | ACATTTGTTGATACAACCATCCCCTGATAATTACACCCATCCCGTGATAATTATCACACCCATCCCGTGATATTGCCTCTGATCATAGTCAGACCAACATTGCTACGACCCGTATTCGCACCGACAC | -3.86 ± 0.83 | -5.99 ± 0.12
2 | ACATTTGGGGATACAACCATAAAATGATAATTACACCCATAAATTGATAATTATCACACCCATAAATTGATATTGCCTCTGATCATAGTCAGACCAACATTGCTACGACCCGTATTCGCACCGACAC | -5.49 ± 0.94 | -6.43 ± 0.081
3 | ACATTTGTTGATACAACCATAAAAGGATAATTACCCCCATCAATTGATAATTATCCCACCCAATTTAACTATAACGCTCTGATCATAGTCAGACCAACATTGCTACGACCCGTATTCGCACCGACAC | 1.91 ± 0.034 | -0.787 ± 0.53
4 | ACATTTGTTGATACAACCATAAAAGGATCATTCACCCATAAATTGATAATTATCACACCCACATTTAACTATAACGCTCTGATCATAGTCAGACCAACATTGCTACGACCCGTATTCGCACCGACAC | -0.0129 ± 0.14 | -3.13 ± 0.14
5 | ACATTTGTTGATACAACCATAAAATGATAATTACAACCATATATTGATATCTCTCAGTGGGTATTTAACTATAACGCTCTGATCATAGTCAGACCAACATTGCTACGACCCGTATTCGCACCGACAC | 3.01 ± 0.18 | -0.933 ± 0.28
6 | ACATTTCTTGATACAACCATAAAATGATAATTACACCCATAAATTCATCATTATCACACCCAATTTAACTATAACGCTCTGATCATAGTCAGACCAACATTGCTACGACCCGTATTCGCACCGACAC | 0.193 ± 0.077 | -2.84 ± 0.46
7 | ACATTTGTTGATACAACCATAAAATGGTAATTACACCCATACATTGATAATTATCACACCCAATTTAACTATAACGCTCTGATCATAGTCAGACCAACATTGCTACGACCCGTATTCGCACCGACAC | 0.71 ± 0.05 | -2.58 ± 0.27
8 | ACATTTGTTGATACAACCATAAAATGATAATTACACCCATAAATTGATAATTAGACAACCCATAAATTGATATTGCCTCTGATCATAGTCAGACCAACATTGCTACGACCCGTATTCGCACCGACAC | 0.737 ± 0.02 | -0.476 ± 0.18
9 | ACATTTGTTGATACAACCATAAAATGATAATTACTCTGATCATCACCCATAAATTGATAATTATCACACCCATAAATTGATATTGCAGTCAGACCAACATTGCTACGACCCGTATTCGCACCGACAC | -2.15 ± 0.28 | -4.28 ± 0.15
10 | ACATTTGTTGATACAACCATAAAATGATAATTACACCCATTTATTGATAATTATCACACCCATAAATTGATATTGCCTCTGATCATAGTCAGACCAACATTGCTACGACCCGTATTCGCACCGACAC | -0.628 ± 0.89 | -0.33 ± 0.029
11 | ACATTAGTTCATACAACCATAAAATGATAATTACACCCATAAATTCATCATTATCACACCCAATTTAACTATAACGCTCTGATCATAGTCAGACCAACATTGCTACGACCCGTATTCGCACCGACAC | -5.32 ± 0.75 | -7.69 ± 0.13
12 | ACATTTGTTGATACAACCATAAAATGATAATTACACCCATAAATTGATAATTATCAACCCCATAAATTGATATTGCCTCTGATCATAGTCAGACCAACATTGCTACGACCCGTATTCGCACCGACAC | 1.26 ± 0.17 | -0.731 ± 0.18
13 | ACATTTGTACTAACAACCATAAAATGATAATTACACCCATAAATTGATAATTATCACACCCATAAATTGATATTGCCTCTGATCATAGTCAGACCAACATTGCTACGACCCGTATTCGCACCGACAC | -4.23 ± 0.45 | -1.43 ± 0.32
14 | ACATTTGTTGATACAACCATTTTTTGATAATTACACCCATAAATTGATAATTATCACACCCATAAATTGATATTGCCTCTGATCATAGTCAGACCAACATTGCTACGACCCGTATTCGCACCGACAC | -0.748 ± 0.44 | -0.627 ± 0.016
15 | ACATTTGTTGATACCACCATCAAATGATAATTACACCCATACATTGATAATTATCACACCCAATTTAACTATAACGCTCTGATCATAGTCAGACCAACATTGCTACGACCCGTATTCGCACCGACAC | -0.805 ± 0.15 | -3.87 ± 0.1
16 | ACATTTGTGGATACAACCCTAAAATGATAATTACACCCATAAATGGATAATTATCACCCCCAATTTAACTATAACGCTCTGATCATAGTCAGACCAACATTGCTACGACCCGTATTCGCACCGACAC | -1.16 ± 0.27 | -3.8 ± 0.4
17 | ACATTTGTTGATACACCCATAAATTGATATTGCCACCCATAAATTGATATTGCTCACAACCATAAGTTGATATTTTCTCTGATCATAGTCAGACCAACATTGCTACGACCCGTATTCGCACCGACAC | -0.179 ± 0.051 | -1.05 ± 0.16
18 | ACATTTGTAAAAAAAACCATACGTTGATTTTACGAAACCATACGCTGAAATAATCACAACCATACATTGAAATTGCCTCTGATCATAGTCAGACCAACATTGCTACGACCCGTATTCGCACCGACAC | -4.99 ± 1 | -6.97 ± 0.31

Row | Sequence | relative integration efficiency (log2) [1] | relative integration efficiency (log2) [2]
19 | ACATTTGTTGATACAACCATAAAGTGATATTTACAACCATAAGTTGATATTTTTCACACCCATAAATTGATATTGCCTCTGATCATAGTCAGACCAACATTGCTACGACCCGTATTCGCACCGACAC | 0.319 ± 0.19 | -0.0454 ± 0.018
20 | ACATTTGTTGCGACAACCATAAAATGATAATTACACCCATAAATTGATAATTATCACACCCATAAATTGATATTGCCTCTGATCATAGTCAGACCAACATTGCTACGACCCGTATTCGCACCGACAC | -1.69 ± 0.07 | -0.447 ± 0.038
21 | ACATTTGTTGATACAACCATAAGTTGATATTTTCAACCATAAGTTGATATTTTTCACACCCATAAATTGATATTGCCTCTGATCATAGTCAGACCAACATTGCTACGACCCGTATTCGCACCGACAC | 0.248 ± 0.18 | 0.348 ± 0.062
22 | ACATTTGTTGATACAACCATAAAAGGATCATTACCCCCATCAATTGATAATTATCCCACCCAATTTAACTATAACGCTCTGATCATAGTCAGACCAACATTGCTACGACCCGTATTCGCACCGACAC | -0.858 ± 0.08 | -3.59 ± 0.36
23 | ACATTTGTTGATACAACCATAAAAAGATAATTACACCCATAAATTGATAATGATGACACCGAATTTAACTATAACGCTCTGATCATAGTCAGACCAACATTGCTACGACCCGTATTCGCACCGACAC | 2.23 ± 0.057 | -1.33 ± 0.2
24 | ACATTTGTTGATACAACCATAAGTTGATATTTTCACCCATAAATTGATAATTATCACAACCATAAAATGATAATTACTCTGATCATAGTCAGACCAACATTGCTACGACCCGTATTCGCACCGACAC | -0.584 ± 0.047 | -0.0424 ± 0.077
25 | ACATTTGCTGATAGAACCATTTAATGATAATAACACCAATAAAATGATAATTATCACACCCAATTTAACTATAACGCTCTGATCATAGTCAGACCAACATTGCTACGACCCGTATTCGCACCGACAC | -2.93 ± 0.82 | -4.53 ± 0.5
26 | ACATTTGTGGATACAACCATAAAACGATAATTACACCCATAAATGGATAATTATCACACCCAATTTAACTATAACGCTCTGATCATAGTCAGACCAACATTGCTACGACCCGTATTCGCACCGACAC | 1.3 ± 0.17 | -1.46 ± 0.2
27 | ACATTGGTTCATACAACCATAAAATGATAATTACACCCATAAATTGATAATTATCACACCCAATTTAACTATAACGCTCTGATCATAGTCAGACCAACATTGCTACGACCCGTATTCGCACCGACAC | -4.38 ± 1.6 | -7.42 ± 0.14
28 | ACATTTGTTGATACAACCATAAAATGATAATTACACCCATAAATTGATAATTATCACACCCATAAATTGATATTGCCTCTATGTACACTGATGAGTTATTACACCTCAAGTTCAATGGCACCGACAC | -0.281 ± 0.31 | -0.228 ± 0.28
29 | ACATTTGTTGATACAACCATAAAATGATCATTACACCCATCAATTGATAATTATCACACCCCATTTAACTATAACGCTCTGATCATAGTCAGACCAACATTGCTACGACCCGTATTCGCACCGACAC | 0.914 ± 0.34 | -2.76 ± 0.2
30 | ACATTTGTGGATACAACCATAAAACGATAATTACACCCATAAATTCATAATTATCACACCCAATTTAACTATAACGCTCTGATCATAGTCAGACCAACATTGCTACGACCCGTATTCGCACCGACAC | 0.933 ± 0.13 | -2.15 ± 0.21
31 | ACATTTGTTGATACAACCATAAAATGATAATTACAACCATAAGTTGATATTTTTCAGTGGGTATTTAACTATAACGCTCTGATCATAGTCAGACCAACATTGCTACGACCCGTATTCGCACCGACAC | 2.72 ± 0.21 | -0.515 ± 0.22
32 | ACATTTGTTGATACAACCATAAAATGATAATTACAACCATAAAATGATAATTATCACAACCATAAAATGATAATTACTCTGATCATAGTCAGACCAACATTGCTACGACCCGTATTCGCACCGACAC | -0.536 ± 0.21 | -0.193 ± 0.0064
33 | ACATTTGTTGATACACCCATAAATTGATATTGCCAACCATAAGTTGATATTTTTCACACCCATAAATTGATAATTACTCTGATCATAGTCAGACCAACATTGCTACGACCCGTATTCGCACCGACAC | 0.0375 ± 0.27 | -0.7 ± 0.21
34 | ACATTTGTTGATACAACCATAAAATGATAATTACACCCATAAATTGATAAAAATCACACCCATAAATTGATATTGCCTCTGATCATAGTCAGACCAACATTGCTACGACCCGTATTCGCACCGACAC | 0.324 ± 0.4 | -0.355 ± 0.081
35 | ACATTTGTTGATACAACCATAAAATGATAATTACAACCATAAAATGATAATTATGATAATTATCATTTTATGGTTGCTCTGATCATAGTCAGACCAACATTGCTACGACCCGTATTCGCACCGACAC | 1.99 ± 0.068 | 0.301 ± 0.039
